Test results taken from the RNAGym collection of RNA variant scans (doi:10.1073/pnas.2313332121).

B1: TPR t1 (parent)
chain: GACCAAUCUGCCCUCAGAGCUCGAGAACAUCUUCGGAUGCAGAGGAGGCAGGCUUCGGUGGCGCGAUAGCGCCAACGUCCUCAACCUCCAAUGCAUCCCACCACAUGAUGAUGCCUGAAGAGCCUUGGUUUUUUG

Variants of: B1
Assay: polymerase ribozyme fitness, log enrichment relative to wild type (log ratio); higher = more active; in vitro selection for triplet polymerase activity
Outline: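 Frozen incubation at −7 °C formed the core of a single, triplicate in vitro selection round applied to PCR-built, transcribed mutant libraries of each subunit of a heterodimeric triplet polymerase ribozyme. Extended constructs were gel-excised, captured with streptavidin beads and amplified by RT-PCR, and input and output libraries were Illumina-sequenced with a filter of ≥10 input reads and ≥1 read per output. Fitness is the logarithm of genotype enrichment relative to wild-type enrichment, with inverse-variance-weighted replicate averaging, and the logarithm is base 2.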

Variant | polymerase ribozyme fitness (log ratio)
G69A C73A C82A G120A G128A | -3.86
U7G C72U | 0.255
U7G C72G | 0.441
A83C U92A C114A G128C | -6.64
U38G G69U | -0.236
G69U C115G | -0.0637
C12U U38G G63U | -1.77
A105U G113U | -5.9
U116C U131G | -1.05
C3U C72G | -0.854
A50U C73A C76G U112A | -3.53
A111G U126C | 0.0972
C22G U38G A43G G113U A119G | -4.22
A41G A50C G77A U116C | -3.42
G71C U81G | -5.8
A26C G117C G122A | -7.15
G60A A100U | -0.621
G48C C49A U55C G61A A95G G110A | -2.85
C8U C73A | 1.41
G45U G48A | -1.51
U32A A41U | -5.52
C12A U32G C53A C89U C114A | -8.31
A2G G51U C114U | -6.82
A37U G52C G120C | 0.23

Variant | polymerase ribozyme fitness (log ratio)
G44U A50U | -2.28
C8U G57U U112A | 1.64
A5G A27G G45C C97U G120A | -2.95
G58C U133A | 0.072
G69U C102U A121U | -3.9
A37G U81G A84C | -5.14
C31U U54A | -5.03
G44C G69U U78C A95U C101U | -0.81
C12A G48C U116G | -5.7
C11A C12A C62U C102A C115U U130G | -8.31
C8U A121U | 2.15
G69U C72U | -0.304
G44A C72G C80U C101U | -2.59
C11A C73U | -1.2
C8A C34A C98G U126G | -4.07
C31G G51U C97A C124U | -6.07
U14A A50C U125G | -3.97
C13U C34A U54A U78C U112A G122C | -3.05
C72U C102A | -1.81
U14A G52C C102U U106C C124G | -1.75
C62U U78C C82G A84C G93A C123U U129G | -1.05
C15G G42A C88G | -4.44
U21G A37U C80A A121G | -3.51
U112A G122A | -0.631

Variant | polymerase ribozyme fitness (log ratio)
C8U C12A A41U A46G G71A C89U | -2.07
G110A A111U | -1.9
A6U C72A A84U U132C | -0.139
C89A C123U | -0.0853
C13G C73U U78C A121C | -0.0893
G19U C72G U78A | -5.06
C53U A90U C101A | -2.09
C8G C12U U21G G39C | -1.78
C13G C64U | -0.666
C70U A90G U106A | 0.297
C49A A50C | -0.838
G58A C82G C88A G127U | -3.33
G39U U106C | -0.461
G61A G113C G128U | -4.09
C8G C89A C114U | -0.406
G17U A43G G57U | -4.19
A2G G60A | -0.122
C28U C62A C124G U133G | -2.2
C8G A111C G113U | -3.45
C82A U87A | -0.237
G17A G23U G61U C76U C114A | -5.73
A16G G44U G113C A119C G135A | -6.45
U21A G57C G120A | -0.312
G63A G113C U133A | -4.26

Variant | polymerase ribozyme fitness (log ratio)
C4U C8G U9C C11G C62G | -0.314
G48U U92C G120A G127C U134G | -1.91
A29C U106A | -1.93
A46U U54G C72A C82A G110U | -4.48
A5U G44U C72A A91C G113C U126G G128A | -5.74
G10C A46C C101A C123G U130A | -1.67
C53U U54G G117A | -0.796
G47A C82G C123G U125A | -1.38
G47U C53A U129G | -2.44
C88A U133A | 0.0129
A46G A103U U125A | -5.23
C12A A46U G47C | -1.36
A26G G77U | -2.79
U30C C97U | -3.64
C88G U130C | -0.362
C13A G51U | -5.64
C40G G110U | -1.7
G44A G57A A91G C101G G113U | -4.86
G71A U87G A103C U106C C124G | -3.7
U33A C102G U112A | -6.38
A43C G61U | -2.24
C12G G120C A121G | -1.12
G39U C56U C73U | -1.4
C28U U32C G71A | -2.59

Variant | polymerase ribozyme fitness (log ratio)
C22U U130G | -3.78
G35U G45A U81A C89A G120A | -4.73
C40A A84G A95C U125G U126G U129A | -4.98
U55A C62U C72U G120A | -0.106
C53U C64A C72U A95C A105C G122U C123G | -6.4
C20A G63A | -3.49
U14G C56U C70A | -5.19
G48C C72G C104A G120C G128A | -4.3
A5U G63U A75U | -0.67
C4U A6G C13G A83G | -1.95
A5U U87G | -0.121
A27U C94G C99G C104U G110U C114G | -6.8
U9G A37U G39A G45U A46U C94G | -5.9
U32C C56A C80U | -1.66
C4U U92A | -4.01
A50G U55G C79G A91C U109A | -6.64
C40A G47A G63U | -4.41
G10A G47C C89U C124G | -0.208
A2C C31G C79U G117U U126A | -4.9
C22U C72G C124U | -3.08
G10C C70G | -3.67
A5G G51U A83U A121C | -3.06
C20G C56A C124U | -4.05
G60A C79U U96A C115U C123G U132A | -1.19

Variant | polymerase ribozyme fitness (log ratio)
G19A C62U C88A A121C | -1.46
C12A G113U | -2.09
G48U A50G | -1.02
C11G A46U G60U A74C A121U | -3.52
C12G G69U U81G A90U G127U | -4.07
U38C A90C | -1.49
G57U G61C U92C | -2.88
A74U G93A | -0.498
C89G G120C | -0.58
G57C G135U | -0.876
G10U A90G | -0.702
U96A G117C | -5.1
A16U A50C C56A A95C | -3.91
C15G A29G C88G | -3.43
C28G G69U A91G U116G | -5.08
A24G G69C C85G | -4.96
U9A G10C C13U C40A C80A G122A | -3.43
G61C U129A | -3.33
A18U G25A C34G C53U G61A A100U | -8.02
C53A C62A G77C | -0.326
C3A U81G C115U | -6.22
C3A C20G A119U A121U U132C | -3.91
G36A C70U C76A C85U | -3.99
G60C C102A | -3.75

Variant | polymerase ribozyme fitness (log ratio)
C11A G48C G71A U87G U106G A121U | -2.38
A46C C115G G117A | -4.09
C49U A84U C88A | -1.82
C15U G45C G47A C53U U59A A90G C101U | -5.35
C56A C64U C124U G128A | -1.71
C86U C94U C115A | -0.874
C8U C72U U87C | 0.806
A27G C49G G63U C89G G117C | -7.01
U55C C56U G69C C85U | -4.97
G51A G57C C114A | -3.38
C13A G61U A91U | -2.53
A6U C11G G69U U125G | -1.05
C12A C13G G35A | -5.31
U7A G17U A74U G117A A118G | -4.25
C73U U129A | -1.05
A5U C11A G58U C70U C101U | -2.57
C115G G120A | -1.35
A5G C20U U38G G110U | -4.64
A2U C8U G36U C80U G127C U130C | -3.03
U21C G23A G44C G48A A90U C97G C101U C102U C114A | -7.25
C13A A50U C72A | -3.71
U7G U55G C82U | 0.425
G60C G61C | -1.72
